Like-named read-outs stand apart in the source and are kept apart here.
Key:
[1] = biological target: Sh2 N9 Y169aH NA ectodomain (stabilized tetramer) (influenza A virus A/Shanghai/02/2013 (H7N9))
[2] = biological target: Sh2 N9 Y169aH NA ectodomain (stabilized tetramer) (influenza A virus A/Shanghai/02/2013 (H7N9)); experiment: crystal structure

Substance: Sh2 N9 Y169aH NA ectodomain (stabilized tetramer) (domain or fragment)
- stoichiometry N [1]: 4
- stoichiometry N [2]: 4
